Data from patent publication US20250163127A1 (published 2025).

T1: human CD80 (human)
T1 chain: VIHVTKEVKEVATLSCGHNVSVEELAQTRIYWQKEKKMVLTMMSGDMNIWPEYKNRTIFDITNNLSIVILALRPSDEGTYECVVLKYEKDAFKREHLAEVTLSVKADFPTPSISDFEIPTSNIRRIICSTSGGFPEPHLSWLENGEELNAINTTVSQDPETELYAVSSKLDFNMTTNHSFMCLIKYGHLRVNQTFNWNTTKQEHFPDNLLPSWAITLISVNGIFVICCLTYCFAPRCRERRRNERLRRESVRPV

T2: TIGIT (human, UniProt Q495A1)
T2 sequence: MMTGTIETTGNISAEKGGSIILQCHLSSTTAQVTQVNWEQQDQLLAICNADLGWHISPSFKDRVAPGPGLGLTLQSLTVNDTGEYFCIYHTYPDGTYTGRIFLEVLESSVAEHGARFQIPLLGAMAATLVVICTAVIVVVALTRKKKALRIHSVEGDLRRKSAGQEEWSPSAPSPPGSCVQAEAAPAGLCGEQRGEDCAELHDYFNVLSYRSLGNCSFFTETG

B1: PD-L1 303-CTLA-4 3037-Fc (SEQ ID NO 3523) (Fc fusion)
chain: FTVTVPKDLYVVEYGSNMTIECKFPVEKQLDLAALIVYWEMEGKDIIQFVHGEEDQKAQHSSYRQRARLLKDQLSLGNAALQITDVKLQDAGVYRCMISYGGGADYKRITVKVNAGSGGSGGGGSGGGGSKAMHVAQPAVVLASSRGIASFVCEYASPWKATEVRVTVLRQADSQVTEVCAATYMMGSELTFPDDSICTGTSSGNQVNLTIRGLRAMDTGLYICKVEQMYPPPYLLGIGNGTQIYVIDPEPCPDSDGGGGSGSGGGGSEPKSSDKTHTCPPCPAPEAEGAPSVFLFPPKPKDTLMISRTPEVTCVVVDVSHEDPEVKFNWYVDGVEVHNAKTKPREEQYNSTYRVVSVLTVLHQDWLNGKEYKCKVSNKALPAPIEKTISKAKGQPREPQVYTLPPSRDELTKNQVSLTCLVKGFYPSDIAVEWESNGQPENNYKTTPPVLDSDGSFFLYSKLTVDKSRWQQGNVFSCSVMHEALHNHYTQKSLSLSPG
B2: PD-L2 1417-IL16 (other)
chain: LFTVTVPKELYIIEQGSNVTLECNFDTGSHVNLGAITASLQKVENDASPHRERATLLEEQLPLGRALFHIPQVQVRDEGQYRCIIIYGDAWDYKYLTLKVKAGSGGSGGGGSGGGGSSAASASAASDVSVESTAEATVCTVTLEKMSAGLGFSLEGGKGSLHGDKPLTINRIFKGAASEQSETVQPGDEILQLGGTAMQGLTRFEAWNIIKALPDGPVTIVIRRKSLQSKETTAAGDSDYKDDDDKHHHHHH
B3: CD155 665-ICOSL 2264-ICOSL 2264-CD155 665 (other)
chain: WPPPGTGDVVVQAPTQVSGFLGDSVTLPCYLQVPNMEVTHVSQLTWARHGESGSMAVFHQTQGPWYAESKRLEFVAARLGAELRNASLRVFGLRAEDEGNYTCQFVTFPQRSRSVDIWLRVLGGGGSGGGGTGGGGSDTQEKEVRAMVGSDVELSCACPEGSRFDLNDVYVYWQTSESKTVVTYHIPQHSSLEYVDSRYRNRALMSPAGMLRGDFSLRLFNVTPQDEQKFHCLVLSRSLGFQEVLSVEVTLHVAANFSVGGGGSGGGGSGGGGSDTQEKEVRAMVGSDVELSCACPEGSRFDLNDVYVYWQTSESKTVVTYHIPQHSSLEYVDSRYRNRALMSPAGMLRGDFSLRLFNVTPQDEQKFHCLVLSRSLGFQEVLSVEVTLHVAANFSVGSGGSGGGGSGGGGSWPPPGTGDVVVQAPTQVSGFLGDSVTLPCYLQVPNMEVTHVSQLTWARHGESGSMAVFHQTQGPWYAESKRLEFVAARLGAELRNASLRVFGLRAEDEGNYTCQFVTFPQRSRSVDIWLRVLGSGGGGSDYKDDDDKHHHHHH
B4: PD-L1 303-CTLA-4 3495-Fc (Fc fusion)
chain: FTVTVPKDLYVVEYGSNMTIECKFPVEKQLDLAALIVYWEMEGKDIIQFVHGEEDQKAQHSSYRQRARLLKDQLSLGNAALQITDVKLQDAGVYRCMISYGGGADYKRITVKVNAGSGGSGGGGSGGGGSKAMHVAQPAVVLASSRGIASFVCEYASPGKATEVRVTVLRQADSQVTEVCAATYMMGNELTFLDDSICTGTSSGNQVNLTIQGLRAMDTGLYICKVELMYPPPYYLGIGNGTQIYVIDPEPSPDSDQGGGGSGSGGGGSEPKSSDKTHTCPPCPAPEAEGAPSVFLFPPKPKDTLMISRTPEVTCVVVDVSHEDPEVKFNWYVDGVEVHNAKTKPREEQYNSTYRVVSVLTVLHQDWLNGKEYKCKVSNKALPAPIEKTISKAKGQPREPQVYTLPPSRDELTKNQVSLTCLVKGFYPSDIAVEWESNGQPENNYKTTPPVLDSDGSFFLYSKLTVDKSRWQQGNVFSCSVMHEALHNHYTQKSLSLSPG

Key:
PD-1 = PD-1 (human, UniProt Q15116); test: cell-based or functional assay
human CD80 = target: T1, human CD80; test: cell-based or functional assay
human PD-1 = human PD-1 (human, UniProt Q15116); test: flow cytometry, CHO/PD-1 cells, 100 nM, anti-FLAG-PE
TIGIT = target: T2, TIGIT; test: cell-based or functional assay
CD28 = CD28 (human, UniProt P10747); test: cell-based or functional assay

Binder | % CD25 Hi FoxP3 + (PD-1) | % CD25 Hi FoxP3 + (human CD80) | MFI (human PD-1) | 100 nM IFN-gamma (pg/mL), SEB assay (TIGIT) | 100 nM IFN-gamma (pg/mL), SEB assay (CD28)
B1 | 44.2 % at 100 nM | 44.2 % at 100 nM |  |  | 
B2 |  |  | 19900 |  | 
B3 |  |  |  | 2120 pg/mL | 2120 pg/mL
B4 | 19.1 % at 100 nM | 19.1 % at 100 nM |  |  | 
